Measurements taken from US20190015483A1 (CSL BEHRING RECOMBINANT FACILITY, published 2019).

Target: T1, recombinant Factor VIII (CSL627, rVIII-SingleChain) (Homo sapiens (Human), UniProt P00451 20-2351)
T1 construct: also called FVIII
T1 sequence: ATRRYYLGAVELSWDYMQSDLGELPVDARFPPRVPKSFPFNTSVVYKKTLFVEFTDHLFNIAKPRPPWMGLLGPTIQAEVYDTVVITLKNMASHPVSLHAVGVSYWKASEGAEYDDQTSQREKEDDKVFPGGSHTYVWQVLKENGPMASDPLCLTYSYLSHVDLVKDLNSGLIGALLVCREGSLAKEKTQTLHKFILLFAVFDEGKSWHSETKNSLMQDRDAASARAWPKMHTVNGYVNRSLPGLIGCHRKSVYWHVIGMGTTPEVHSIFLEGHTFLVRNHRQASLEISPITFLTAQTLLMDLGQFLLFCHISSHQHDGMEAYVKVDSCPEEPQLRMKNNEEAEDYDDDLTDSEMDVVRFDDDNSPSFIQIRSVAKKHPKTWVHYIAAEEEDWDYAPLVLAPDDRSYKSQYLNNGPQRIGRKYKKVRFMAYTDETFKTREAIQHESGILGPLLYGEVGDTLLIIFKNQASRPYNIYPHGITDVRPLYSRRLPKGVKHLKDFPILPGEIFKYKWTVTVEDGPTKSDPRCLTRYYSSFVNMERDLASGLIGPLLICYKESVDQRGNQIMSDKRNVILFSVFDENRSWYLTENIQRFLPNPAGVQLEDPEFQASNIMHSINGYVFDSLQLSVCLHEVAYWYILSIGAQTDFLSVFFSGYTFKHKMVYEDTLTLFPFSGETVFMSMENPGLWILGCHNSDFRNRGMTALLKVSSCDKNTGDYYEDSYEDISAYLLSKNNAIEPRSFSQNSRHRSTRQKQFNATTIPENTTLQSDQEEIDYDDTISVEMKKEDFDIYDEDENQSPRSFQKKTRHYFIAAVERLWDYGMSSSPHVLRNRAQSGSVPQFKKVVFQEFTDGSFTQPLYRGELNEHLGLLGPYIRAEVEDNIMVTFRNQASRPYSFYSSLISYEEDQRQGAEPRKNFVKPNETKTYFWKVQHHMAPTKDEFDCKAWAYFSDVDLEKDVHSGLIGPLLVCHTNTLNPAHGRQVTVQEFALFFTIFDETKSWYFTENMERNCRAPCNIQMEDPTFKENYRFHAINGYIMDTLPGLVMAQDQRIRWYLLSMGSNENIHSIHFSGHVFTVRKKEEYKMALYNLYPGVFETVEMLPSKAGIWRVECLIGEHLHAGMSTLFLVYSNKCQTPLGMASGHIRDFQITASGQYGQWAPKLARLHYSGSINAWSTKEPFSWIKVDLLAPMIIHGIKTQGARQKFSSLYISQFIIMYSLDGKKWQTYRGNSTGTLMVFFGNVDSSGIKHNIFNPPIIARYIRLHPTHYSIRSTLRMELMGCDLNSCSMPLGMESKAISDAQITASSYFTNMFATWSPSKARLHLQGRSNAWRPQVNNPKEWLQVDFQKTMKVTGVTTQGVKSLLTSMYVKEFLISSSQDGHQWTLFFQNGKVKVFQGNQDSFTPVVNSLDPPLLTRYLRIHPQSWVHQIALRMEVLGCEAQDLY
Experiment: SPR, anti-His capture
Procedure: Binding kinetics were investigated by surface plasmon resonance using a Biacore 4000 biosensor at 37° C. Each mutant was captured from cell culture medium to a density of 40-150 RU on a CM-5 sensor chip pre-immobilised with anti-His antibody (14,000 RU). In an initial screening study, FVIII was injected over the captured mutants for 5 minutes at 1 nM and dissociation monitored for 5 minutes.
All sensorgrams were double referenced by subtraction of signals from a reference spot (containing only immobilised anti His antibody) and from a blank injection. Binding kinetics were determined by fitting the double referenced sensorgrams to a 1:1 kinetic model.

B1: Hu-vWF[764-1270]-8His S764L/S766Y (other)
chain: LLYCRPPMVKLVCPADNLRAEGLECTKTCQNYDLECMSMGCVSGCLCPPGMVRHENRCVALERCPCFHQGKEYAPGETVKIGCNTCVCRDRKWNCTDHVCDATCSTIGMAHYLTFDGLKYLFPGECQYVLVQDYCGSNPGTFRILVGNKGCSHPSVKCKKRVTILVEGGEIELFDGEVNVKRPMKDETHFEVVESGRYIILLLGKALSVVWDRHLSISVVLKQTYQEKVCGLCGNFDGIQNNDLTSSNLQVEEDPVDFGNSWKVSSQCADTRKVPLDSSPATCHNNIMKQTMVDSSCRILTSDVFQDCNKLVDPEPYLDVCIYDTCSCESIGDCACFCDTIAAYAHVCAQHGKVVTWRTATLCPQSCEERNLRENGYECEWRYNSCAPACQVTCQHPEPLACPVQCVEGCHAHCPPGKILDELLQTCVDPEDCPVCEVAGRRFASGKKVTLNPSDPEHCQICHCDVVNLTCEACQEPGGLVVPPTDAPVSPTTLYVEDISEPPLHDFHHHHHHHH
Q: Which Kd does the source give for B1 here?
A: 2.27 pM

Q: And the koff?
A: 7.99e-05 s⁻¹

Q: And the kon?
A: 3.52e+07 M⁻¹ s⁻¹

B2: Hu-vWF[764-1270]-8His S764V/S766Y (other)
chain: VLYCRPPMVKLVCPADNLRAEGLECTKTCQNYDLECMSMGCVSGCLCPPGMVRHENRCVALERCPCFHQGKEYAPGETVKIGCNTCVCRDRKWNCTDHVCDATCSTIGMAHYLTFDGLKYLFPGECQYVLVQDYCGSNPGTFRILVGNKGCSHPSVKCKKRVTILVEGGEIELFDGEVNVKRPMKDETHFEVVESGRYIILLLGKALSVVWDRHLSISVVLKQTYQEKVCGLCGNFDGIQNNDLTSSNLQVEEDPVDFGNSWKVSSQCADTRKVPLDSSPATCHNNIMKQTMVDSSCRILTSDVFQDCNKLVDPEPYLDVCIYDTCSCESIGDCACFCDTIAAYAHVCAQHGKVVTWRTATLCPQSCEERNLRENGYECEWRYNSCAPACQVTCQHPEPLACPVQCVEGCHAHCPPGKILDELLQTCVDPEDCPVCEVAGRRFASGKKVTLNPSDPEHCQICHCDVVNLTCEACQEPGGLVVPPTDAPVSPTTLYVEDISEPPLHDFHHHHHHHH
Q: Which Kd does the source give for B2 here?
A: 2.15 pM

Q: What about the koff of the same binder?
A: 6.41e-05 s⁻¹

Q: What about the kon of the same binder?
A: 2.99e+07 M⁻¹ s⁻¹

B3: Hu-vWF[764-1270]-8His S764Q/S766Y (other)
chain: QLYCRPPMVKLVCPADNLRAEGLECTKTCQNYDLECMSMGCVSGCLCPPGMVRHENRCVALERCPCFHQGKEYAPGETVKIGCNTCVCRDRKWNCTDHVCDATCSTIGMAHYLTFDGLKYLFPGECQYVLVQDYCGSNPGTFRILVGNKGCSHPSVKCKKRVTILVEGGEIELFDGEVNVKRPMKDETHFEVVESGRYIILLLGKALSVVWDRHLSISVVLKQTYQEKVCGLCGNFDGIQNNDLTSSNLQVEEDPVDFGNSWKVSSQCADTRKVPLDSSPATCHNNIMKQTMVDSSCRILTSDVFQDCNKLVDPEPYLDVCIYDTCSCESIGDCACFCDTIAAYAHVCAQHGKVVTWRTATLCPQSCEERNLRENGYECEWRYNSCAPACQVTCQHPEPLACPVQCVEGCHAHCPPGKILDELLQTCVDPEDCPVCEVAGRRFASGKKVTLNPSDPEHCQICHCDVVNLTCEACQEPGGLVVPPTDAPVSPTTLYVEDISEPPLHDFHHHHHHHH
Q: Which Kd does the source give for B3 here?
A: 9.18 pM

Q: What about the koff of the same binder?
A: 0.000109 s⁻¹

Q: What about the kon of the same binder?
A: 1.19e+07 M⁻¹ s⁻¹

B4: Hu-vWF[764-1270]-8His S764R/S766Y (other)
chain: RLYCRPPMVKLVCPADNLRAEGLECTKTCQNYDLECMSMGCVSGCLCPPGMVRHENRCVALERCPCFHQGKEYAPGETVKIGCNTCVCRDRKWNCTDHVCDATCSTIGMAHYLTFDGLKYLFPGECQYVLVQDYCGSNPGTFRILVGNKGCSHPSVKCKKRVTILVEGGEIELFDGEVNVKRPMKDETHFEVVESGRYIILLLGKALSVVWDRHLSISVVLKQTYQEKVCGLCGNFDGIQNNDLTSSNLQVEEDPVDFGNSWKVSSQCADTRKVPLDSSPATCHNNIMKQTMVDSSCRILTSDVFQDCNKLVDPEPYLDVCIYDTCSCESIGDCACFCDTIAAYAHVCAQHGKVVTWRTATLCPQSCEERNLRENGYECEWRYNSCAPACQVTCQHPEPLACPVQCVEGCHAHCPPGKILDELLQTCVDPEDCPVCEVAGRRFASGKKVTLNPSDPEHCQICHCDVVNLTCEACQEPGGLVVPPTDAPVSPTTLYVEDISEPPLHDFHHHHHHHH
Q: Which results are given for B4?
A: Kd: 2.85 pM; koff: 9.2e-05 s⁻¹; kon: 3.23e+07 M⁻¹ s⁻¹

B5: Hu-vWF[764-1270]-8His S764M/S766Y (other)
chain: MLYCRPPMVKLVCPADNLRAEGLECTKTCQNYDLECMSMGCVSGCLCPPGMVRHENRCVALERCPCFHQGKEYAPGETVKIGCNTCVCRDRKWNCTDHVCDATCSTIGMAHYLTFDGLKYLFPGECQYVLVQDYCGSNPGTFRILVGNKGCSHPSVKCKKRVTILVEGGEIELFDGEVNVKRPMKDETHFEVVESGRYIILLLGKALSVVWDRHLSISVVLKQTYQEKVCGLCGNFDGIQNNDLTSSNLQVEEDPVDFGNSWKVSSQCADTRKVPLDSSPATCHNNIMKQTMVDSSCRILTSDVFQDCNKLVDPEPYLDVCIYDTCSCESIGDCACFCDTIAAYAHVCAQHGKVVTWRTATLCPQSCEERNLRENGYECEWRYNSCAPACQVTCQHPEPLACPVQCVEGCHAHCPPGKILDELLQTCVDPEDCPVCEVAGRRFASGKKVTLNPSDPEHCQICHCDVVNLTCEACQEPGGLVVPPTDAPVSPTTLYVEDISEPPLHDFHHHHHHHH
Q: Which results are given for B5?
A: Kd: 14.4 pM; koff: 0.000103 s⁻¹; kon: 7.15e+06 M⁻¹ s⁻¹

B6: Hu-vWF[764-1270]-8His S764W/S766Y (other)
chain: WLYCRPPMVKLVCPADNLRAEGLECTKTCQNYDLECMSMGCVSGCLCPPGMVRHENRCVALERCPCFHQGKEYAPGETVKIGCNTCVCRDRKWNCTDHVCDATCSTIGMAHYLTFDGLKYLFPGECQYVLVQDYCGSNPGTFRILVGNKGCSHPSVKCKKRVTILVEGGEIELFDGEVNVKRPMKDETHFEVVESGRYIILLLGKALSVVWDRHLSISVVLKQTYQEKVCGLCGNFDGIQNNDLTSSNLQVEEDPVDFGNSWKVSSQCADTRKVPLDSSPATCHNNIMKQTMVDSSCRILTSDVFQDCNKLVDPEPYLDVCIYDTCSCESIGDCACFCDTIAAYAHVCAQHGKVVTWRTATLCPQSCEERNLRENGYECEWRYNSCAPACQVTCQHPEPLACPVQCVEGCHAHCPPGKILDELLQTCVDPEDCPVCEVAGRRFASGKKVTLNPSDPEHCQICHCDVVNLTCEACQEPGGLVVPPTDAPVSPTTLYVEDISEPPLHDFHHHHHHHH
Q: How did the Kd turn out when B6 was run?
A: 10.9 pM

Q: What about the koff of the same binder?
A: 9.67e-05 s⁻¹

Q: What about the kon of the same binder?
A: 8.88e+06 M⁻¹ s⁻¹

B7: Hu-vWF[764-1270]-8His S764N/S766Y (other)
chain: NLYCRPPMVKLVCPADNLRAEGLECTKTCQNYDLECMSMGCVSGCLCPPGMVRHENRCVALERCPCFHQGKEYAPGETVKIGCNTCVCRDRKWNCTDHVCDATCSTIGMAHYLTFDGLKYLFPGECQYVLVQDYCGSNPGTFRILVGNKGCSHPSVKCKKRVTILVEGGEIELFDGEVNVKRPMKDETHFEVVESGRYIILLLGKALSVVWDRHLSISVVLKQTYQEKVCGLCGNFDGIQNNDLTSSNLQVEEDPVDFGNSWKVSSQCADTRKVPLDSSPATCHNNIMKQTMVDSSCRILTSDVFQDCNKLVDPEPYLDVCIYDTCSCESIGDCACFCDTIAAYAHVCAQHGKVVTWRTATLCPQSCEERNLRENGYECEWRYNSCAPACQVTCQHPEPLACPVQCVEGCHAHCPPGKILDELLQTCVDPEDCPVCEVAGRRFASGKKVTLNPSDPEHCQICHCDVVNLTCEACQEPGGLVVPPTDAPVSPTTLYVEDISEPPLHDFHHHHHHHH
Q: B7 was tested. Which Kd did it give?
A: 6.92 pM

Q: And the koff?
A: 8.88e-05 s⁻¹

Q: And the kon?
A: 1.28e+07 M⁻¹ s⁻¹

B8: Hu-vWF[764-1270]-8His S764T/S766Y (other)
chain: TLYCRPPMVKLVCPADNLRAEGLECTKTCQNYDLECMSMGCVSGCLCPPGMVRHENRCVALERCPCFHQGKEYAPGETVKIGCNTCVCRDRKWNCTDHVCDATCSTIGMAHYLTFDGLKYLFPGECQYVLVQDYCGSNPGTFRILVGNKGCSHPSVKCKKRVTILVEGGEIELFDGEVNVKRPMKDETHFEVVESGRYIILLLGKALSVVWDRHLSISVVLKQTYQEKVCGLCGNFDGIQNNDLTSSNLQVEEDPVDFGNSWKVSSQCADTRKVPLDSSPATCHNNIMKQTMVDSSCRILTSDVFQDCNKLVDPEPYLDVCIYDTCSCESIGDCACFCDTIAAYAHVCAQHGKVVTWRTATLCPQSCEERNLRENGYECEWRYNSCAPACQVTCQHPEPLACPVQCVEGCHAHCPPGKILDELLQTCVDPEDCPVCEVAGRRFASGKKVTLNPSDPEHCQICHCDVVNLTCEACQEPGGLVVPPTDAPVSPTTLYVEDISEPPLHDFHHHHHHHH
Q: How did the Kd turn out when B8 was run?
A: 5.27 pM

Q: What about the koff of the same binder?
A: 0.000136 s⁻¹

Q: And the kon?
A: 2.58e+07 M⁻¹ s⁻¹
